Among the data in patent US20250144194A1 (KAIMI BIOMEDICINE CHENGDU, published 2025) are Kd values, retold here.

This test deals with T1, FcγRIIA protein (UniProt P12318 36-218, limits assumed).
T1 construct: also called hFcγRIIA
T1 sequence (looked up): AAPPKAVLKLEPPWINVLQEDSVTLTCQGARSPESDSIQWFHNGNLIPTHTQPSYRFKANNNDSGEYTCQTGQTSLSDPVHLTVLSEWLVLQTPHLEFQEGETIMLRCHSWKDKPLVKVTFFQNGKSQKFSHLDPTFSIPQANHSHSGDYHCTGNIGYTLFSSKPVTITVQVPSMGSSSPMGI
The experiment in a line: BLI, multi-concentration (5000-312.5 nM of Fc variant). An excerpt: The Seq2-Sf9 and Seq3-Sf9 are identified using Coomassie Brilliant Blue stained SDS-PAGE gel, with BSA as a control protein. The arrows indicate the positions of Seq2-Sf9 and Seq3-Sf9, and it can be determined that the purified protein is obtained with a molecular weight of about 26 kDa. […] The curves shown from bottom to top indicate that the concentrations of the Seq2-Sf9 and Seq3-Sf9 proteins […] in sequence.
For orientation: In BLI a coated tip is dipped into the sample, and binding shifts an interference pattern.

Usually Kd stands for the equilibrium constant for the complex coming apart.

B1: Seq2-Sf9 (other)
chain: VDKKIVPADCGCAPCICAVPEVSSVFIFPPKPKDVLTITLTPKVTCVVVDISKDDPEVQFSWFVDDVEVHTAQTQPREEQFNSTFRSVSELPIMHQDWLNGKEFKCRVNSAAFPAPIEKTISKTKGRPKAPQVYTIPPPKEQMAKDKVSLTCMITDFFPEDITVEWQWNGQPAENYKNTQPIMDTDGSYFVYSKLNVQKSNWEAGNTFTCSVLHEGLHNHHTEKSLSHSPGL
modifications: non-mammalian (insect, Sf9) N-glycosylation at position 297 (EU numbering), without sialic acid
notes: Expressed from the pFastBacHTa-gp64 vector in Sf9 cells and purified from the supernatant by Protein A, about 26 kDa on SDS-PAGE; also called mouse Fc with three mutations
For B1, the Kd was determined as 789 nM.

B2: Seq3-Sf9 (other)
chain: VDKKIVPADCGCAPCICAVPEVSSVFIFPPKPKDVLTITLTPKVTCVVVDISKDDPEVQFSWFVDDVEVHTAQTQPREEQFNSTFRSVSELPIMHQDWLNGKEFKCRVNSAAFPLPEEKTISKTKGRPKAPQVYTIPPPKEQMAKDKVSLTCMITDFFPEDITVEWQWNGQPAENYKNTQPIMDTDGSYFVYSKLNVQKSNWEAGNTFTCSVLHEGLHNHHTEKSLSHSPGL
modifications: non-mammalian (insect, Sf9) N-glycosylation at position 297 (EU numbering), without sialic acid
notes: also called mouse Fc with five mutations
Molecule B2 displayed a Kd of 450 nM.
